The text below walks through data of PMC5065165, “Mechanistic Insights into Archaeal and Human Argonaute Substrate Binding and Cleavage Properties”.

The target of data set [1] is T1, MjAgo (Methanocaldococcus jannaschii) (UniProt Q58717).
T1 sequence: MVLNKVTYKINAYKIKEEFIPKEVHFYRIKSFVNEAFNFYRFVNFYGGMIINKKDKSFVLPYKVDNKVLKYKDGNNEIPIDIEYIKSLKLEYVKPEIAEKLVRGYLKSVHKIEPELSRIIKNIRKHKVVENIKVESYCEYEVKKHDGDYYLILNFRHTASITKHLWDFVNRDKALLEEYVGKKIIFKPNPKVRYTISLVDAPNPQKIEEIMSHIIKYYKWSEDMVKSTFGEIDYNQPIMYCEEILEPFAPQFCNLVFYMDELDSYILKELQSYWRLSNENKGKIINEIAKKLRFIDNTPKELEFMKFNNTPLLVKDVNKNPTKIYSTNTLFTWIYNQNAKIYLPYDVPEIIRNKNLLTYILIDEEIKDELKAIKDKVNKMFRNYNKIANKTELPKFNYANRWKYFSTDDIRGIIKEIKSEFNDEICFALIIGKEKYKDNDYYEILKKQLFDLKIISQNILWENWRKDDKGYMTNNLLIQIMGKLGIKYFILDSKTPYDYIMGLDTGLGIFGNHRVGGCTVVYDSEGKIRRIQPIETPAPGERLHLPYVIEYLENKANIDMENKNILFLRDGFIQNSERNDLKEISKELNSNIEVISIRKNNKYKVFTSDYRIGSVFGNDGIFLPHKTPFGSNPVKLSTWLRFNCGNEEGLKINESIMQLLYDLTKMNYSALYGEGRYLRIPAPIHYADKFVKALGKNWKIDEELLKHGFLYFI
Description: equilibrium fluorescence titration. Conditions: 5'-phosphate on guide; Stopped-flow at 25 °C, 20 nM FAM-labelled guide, same buffers as titrations (buffer composition not in the material; hybridization buffer 15 mM Hepes pH 7.4 …).

The target of data set [2] is T2, MjAgo (Methanocaldococcus jannaschii, UniProt Q58717 1-713).
T2 sequence: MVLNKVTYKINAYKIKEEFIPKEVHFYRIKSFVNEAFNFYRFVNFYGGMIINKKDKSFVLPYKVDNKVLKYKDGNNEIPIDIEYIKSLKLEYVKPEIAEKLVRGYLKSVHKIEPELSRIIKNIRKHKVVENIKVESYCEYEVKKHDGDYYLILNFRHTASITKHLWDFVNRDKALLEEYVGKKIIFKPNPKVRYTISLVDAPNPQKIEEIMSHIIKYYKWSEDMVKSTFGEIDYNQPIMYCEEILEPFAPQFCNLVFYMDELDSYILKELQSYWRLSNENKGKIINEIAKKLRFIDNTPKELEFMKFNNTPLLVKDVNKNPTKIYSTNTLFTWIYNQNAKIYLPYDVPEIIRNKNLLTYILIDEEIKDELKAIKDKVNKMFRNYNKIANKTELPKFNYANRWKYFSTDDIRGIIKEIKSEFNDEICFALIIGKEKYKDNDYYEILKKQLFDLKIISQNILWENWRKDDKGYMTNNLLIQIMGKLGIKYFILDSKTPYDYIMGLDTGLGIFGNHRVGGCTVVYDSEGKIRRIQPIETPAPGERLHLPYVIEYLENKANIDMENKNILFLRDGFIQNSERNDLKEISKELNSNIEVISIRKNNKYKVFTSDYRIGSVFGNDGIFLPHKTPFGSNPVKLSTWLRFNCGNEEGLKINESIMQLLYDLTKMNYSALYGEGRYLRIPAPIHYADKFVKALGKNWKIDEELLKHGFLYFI
Description: equilibrium fluorescence titration; target binding to preformed MjAgo-guide DNA; Stopped-flow at 25 °C, 20 nM FAM-labelled guide, same buffers as titrations (buffer composition not in the material; hybridization buffer 15 mM Hepes pH 7.4, 50 mM K-acetate, 1 mM Mg-acetate). The following applies: protein: recombinant; label: C6-linked 5/6-FAM at guide T14; guide preloaded on Ago, target added; 3' overhang 2 nt on both strands.

The target in data set [3] is T2, MjAgo. Description: stopped-flow fluorescence; two-step, third phase undetectable; k2 0.018 s-1; Kd n.d.; Stopped-flow at 25 °C, 20 nM FAM-labelled guide, same buffers as titrations (buffer composition not in the material; hybridization buffer 15 mM Hepes pH 7.4, 50 mM K-acetate, 1 mM Mg-acetate). The following applies: protein: recombinant; partially mismatched; guide preloaded on Ago, target added.

Data set [4] addresses T2, MjAgo. The data set can be described thus: equilibrium fluorescence titration; Stopped-flow at 25 °C, 20 nM FAM-labelled guide, same buffers as titrations (buffer composition not in the material; hybridization buffer 15 mM Hepes pH 7.4, 50 mM K-acetate, 1 mM Mg-acetate). The following applies: protein: recombinant; label: C6-linked 5/6-FAM at T14.
The next data set has as its target hAgo2 (human, UniProt Q9UKV8 1-859). The data set can be described thus: stopped-flow fluorescence; three-step; k1 0.1e8 M-1 s-1; Kd n.d.; Stopped-flow at 25 °C, 20 nM FAM-labelled guide, same buffers as titrations (buffer composition not in the material; hybridization buffer 15 mM Hepes pH 7.4, 50 mM K-acetate, 1 mM Mg-acetate). Conditions: protein: recombinant; label: C6-linked 5/6-FAM at T14.

In data set [5] the target is T3, MjAgo Mid mutant (Tyr442Ala) (Methanocaldococcus jannaschii, UniProt Q58717 1-713, Y442A).
T3 sequence: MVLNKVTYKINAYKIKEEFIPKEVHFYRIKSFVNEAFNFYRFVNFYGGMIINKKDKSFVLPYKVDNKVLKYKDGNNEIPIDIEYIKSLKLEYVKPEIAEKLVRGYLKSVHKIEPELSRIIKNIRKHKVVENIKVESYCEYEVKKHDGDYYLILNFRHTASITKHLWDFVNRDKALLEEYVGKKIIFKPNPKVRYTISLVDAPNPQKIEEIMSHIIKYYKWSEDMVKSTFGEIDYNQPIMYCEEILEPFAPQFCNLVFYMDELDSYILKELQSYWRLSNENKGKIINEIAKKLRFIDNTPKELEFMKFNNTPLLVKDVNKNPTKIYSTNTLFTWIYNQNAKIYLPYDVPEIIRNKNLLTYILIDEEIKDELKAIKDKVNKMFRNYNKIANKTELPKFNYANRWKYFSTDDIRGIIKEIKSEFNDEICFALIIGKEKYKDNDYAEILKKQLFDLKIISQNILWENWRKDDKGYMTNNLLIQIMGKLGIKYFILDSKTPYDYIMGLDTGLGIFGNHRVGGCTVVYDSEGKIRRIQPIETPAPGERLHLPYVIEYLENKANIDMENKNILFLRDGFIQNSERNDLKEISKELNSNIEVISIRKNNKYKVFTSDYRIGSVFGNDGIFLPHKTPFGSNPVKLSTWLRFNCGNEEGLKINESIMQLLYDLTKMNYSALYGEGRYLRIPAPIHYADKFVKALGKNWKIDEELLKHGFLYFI
The data set can be described thus: stopped-flow fluorescence; two-step, Mid binding phase missing; k3 0.002 s-1; Kd n.d.; Stopped-flow at 25 °C, 20 nM FAM-labelled guide, same buffers as titrations (buffer composition not in the material; hybridization buffer 15 mM Hepes pH 7.4, 50 mM K-acetate, 1 mM Mg-acetate). Conditions: protein: recombinant; label: C6-linked 5/6-FAM at T14.

Chain of hAgo2 (Q9UKV8 whole entry): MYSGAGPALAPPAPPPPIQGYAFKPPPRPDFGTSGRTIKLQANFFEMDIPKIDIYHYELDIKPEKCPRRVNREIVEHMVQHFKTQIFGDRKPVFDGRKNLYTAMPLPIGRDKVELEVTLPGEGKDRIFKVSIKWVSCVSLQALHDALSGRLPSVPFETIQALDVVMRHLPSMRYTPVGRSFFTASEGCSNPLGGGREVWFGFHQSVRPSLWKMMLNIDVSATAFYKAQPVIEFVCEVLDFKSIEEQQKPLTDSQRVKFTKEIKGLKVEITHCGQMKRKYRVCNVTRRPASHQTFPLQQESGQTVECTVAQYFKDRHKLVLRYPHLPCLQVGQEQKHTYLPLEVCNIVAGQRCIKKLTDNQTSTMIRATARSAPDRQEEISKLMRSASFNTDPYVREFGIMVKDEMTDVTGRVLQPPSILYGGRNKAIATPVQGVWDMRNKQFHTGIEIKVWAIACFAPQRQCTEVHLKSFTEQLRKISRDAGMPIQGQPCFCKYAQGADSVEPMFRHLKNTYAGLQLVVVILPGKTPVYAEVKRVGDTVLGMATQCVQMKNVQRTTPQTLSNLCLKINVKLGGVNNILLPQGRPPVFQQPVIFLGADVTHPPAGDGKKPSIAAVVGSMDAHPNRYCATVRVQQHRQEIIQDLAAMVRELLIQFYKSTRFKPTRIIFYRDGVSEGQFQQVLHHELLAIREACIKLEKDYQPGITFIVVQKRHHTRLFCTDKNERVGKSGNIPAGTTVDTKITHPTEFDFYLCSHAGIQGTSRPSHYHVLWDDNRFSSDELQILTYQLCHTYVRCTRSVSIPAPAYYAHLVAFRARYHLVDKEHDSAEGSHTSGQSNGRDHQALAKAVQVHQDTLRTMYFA

In the case of “TAGAGGTACGTGCTGAGGCTT / GCCTCAGCACGTACCTCTATT [D-as2bFAM/D-s2b (ds siDNA, D-si2bFAM)]”, in data set [1], the Kd (in general, the free concentration of one partner at which half of the binding sites on the other are occupied at equilibrium, for simple one-to-one binding) is 103 nM.

B1: D-as2bFAM guide DNA / D-s2b target DNA (dsDNA)
DNA 1: TAGAGGTACGTGCTGAGGCTT
DNA 2: GCCTCAGCACGTACCTCTATT
modifications: 5'-phosphate on guide
For the molecule B1, the dissociation constant Kd with MjAgo [2] was found to be 0.5 ± 0.04 nM.

B2: D-as2bFAM guide DNA / 3'-mismatched target DNA (D-s2bmm) (dsDNA)
DNA 1: TAGAGGTACGTGCTGAGGCTT
DNA 2: GCCTCAGCAGCGGGAATATTT
modifications: 5'-phosphate on guide
Turning to B2, the binding result in the data set with MjAgo [3] was “binds”.

For TAGAGGTACGTGCTGAGGCTT (ssDNA, 5'-phosphate) [D-as2bFAM (ss guide DNA)], in the data set with MjAgo [4], the Kd worked out at 3.4 ± 0.4 nM. The binding result (with hAgo2; in data set [5]) was “binds” throughout.
